The values that follow come from publication PMC9456107, “DNA Motifs and an Accessory CRISPR Factor Determine Cas1 Binding and Integration Activity in Sulfolobus islandicus”.

The target in one series is T1, PfuCas1 (Pyrococcus furiosus COM1, UniProt I6TWX9 1-322).
T1 sequence: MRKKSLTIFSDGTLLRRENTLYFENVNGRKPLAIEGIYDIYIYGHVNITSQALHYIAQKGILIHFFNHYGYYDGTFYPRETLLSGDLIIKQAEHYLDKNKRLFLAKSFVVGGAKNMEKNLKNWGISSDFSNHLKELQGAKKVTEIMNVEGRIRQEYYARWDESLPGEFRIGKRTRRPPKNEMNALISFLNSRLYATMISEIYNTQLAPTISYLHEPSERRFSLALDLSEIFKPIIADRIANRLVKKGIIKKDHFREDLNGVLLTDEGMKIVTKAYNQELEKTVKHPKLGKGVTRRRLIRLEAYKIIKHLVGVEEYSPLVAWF
The series can be described thus: EMSA; EMSA on 12% native PAGE, 0.3 uM FAM probe (0.5 uM P1 in Fig S3); buffer, pH and temperature not stated (refers to earlier work). Particulars: protein: recombinant, tags: C-terminal His, chain copies: 2, label: 5'-FAM.

In another series the target is T2, Cas2 (SisCas2) (Sulfolobus islandicus REY15A, UniProt F0NH44 1-89).
T2 sequence: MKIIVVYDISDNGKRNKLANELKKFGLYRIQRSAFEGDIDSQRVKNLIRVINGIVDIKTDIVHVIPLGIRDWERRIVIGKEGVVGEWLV
The series can be described thus: EMSA; 3.3 and 6.7 uM Cas2; EMSA on 12% native PAGE, 0.3 uM FAM probe (0.5 uM P1 in Fig S3); buffer, pH and temperature not stated (refers to earlier work). Conditions: protein: recombinant; tags: C-terminal His; chain copies: 2; label: 5'-FAM on sense strand; mixture of blunt duplex, ssDNA and hairpin.

With TCCTCCACTTTCCCCGTAAGGGGTCGGAGGGGGCGGTCTTTCCC (structured_DNA) [Syn-S leader ssDNA], the binding result with PfuCas1 (two predicted hairpins) is recorded as “binds”.

B1: Pfu-WT leader-repeat ssDNA (structured_DNA)
DNA: CTCCGTAGGAGGATTGGGGCAAAAAAGCCCCCTGTTCCAATAAGACTACAAAAGAATTGAAAG
In the case of B1, the binding result with PfuCas1 (hairpin) is “binds”.

B2: leader-proximal WT S/A annealed probe (5:1 or unspecified ratio, contains hairpin ssDNA) (mixed)
DNA 1: CAAATAGAGGGTTAAAAAACCCTCAGCTAATC
DNA 2: GATTAGCTGAGGGTTTTTTAACCCTCTATTTG
Regarding B2, the binding result in the series with Cas2 (SisCas2) is given as “no binding”.
